Test results as given in US20240209100A1 (DIAGONAL THERAPEUTICS, published 2024).

T1: IL-18 receptor (IL-18Rα/IL-18Rβ) overexpressed on HEK-Blue IL-18 cells (Homo sapiens (Human), UniProt Q13478 19-541; O95256 20-599)
T1 sequence 1: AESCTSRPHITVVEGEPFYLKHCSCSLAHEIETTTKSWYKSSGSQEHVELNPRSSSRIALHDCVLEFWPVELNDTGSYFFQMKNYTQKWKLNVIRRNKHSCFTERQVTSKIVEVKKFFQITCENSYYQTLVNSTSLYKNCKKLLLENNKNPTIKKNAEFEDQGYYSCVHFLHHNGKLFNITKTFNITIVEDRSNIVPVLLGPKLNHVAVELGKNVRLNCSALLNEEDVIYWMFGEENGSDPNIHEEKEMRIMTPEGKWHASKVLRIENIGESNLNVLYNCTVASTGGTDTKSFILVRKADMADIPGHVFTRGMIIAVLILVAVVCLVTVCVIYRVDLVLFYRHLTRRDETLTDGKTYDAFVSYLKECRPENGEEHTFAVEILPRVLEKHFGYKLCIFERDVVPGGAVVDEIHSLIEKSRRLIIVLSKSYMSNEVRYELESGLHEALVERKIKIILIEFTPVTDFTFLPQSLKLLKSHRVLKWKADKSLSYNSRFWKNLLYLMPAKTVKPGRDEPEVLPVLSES
T1 sequence 2: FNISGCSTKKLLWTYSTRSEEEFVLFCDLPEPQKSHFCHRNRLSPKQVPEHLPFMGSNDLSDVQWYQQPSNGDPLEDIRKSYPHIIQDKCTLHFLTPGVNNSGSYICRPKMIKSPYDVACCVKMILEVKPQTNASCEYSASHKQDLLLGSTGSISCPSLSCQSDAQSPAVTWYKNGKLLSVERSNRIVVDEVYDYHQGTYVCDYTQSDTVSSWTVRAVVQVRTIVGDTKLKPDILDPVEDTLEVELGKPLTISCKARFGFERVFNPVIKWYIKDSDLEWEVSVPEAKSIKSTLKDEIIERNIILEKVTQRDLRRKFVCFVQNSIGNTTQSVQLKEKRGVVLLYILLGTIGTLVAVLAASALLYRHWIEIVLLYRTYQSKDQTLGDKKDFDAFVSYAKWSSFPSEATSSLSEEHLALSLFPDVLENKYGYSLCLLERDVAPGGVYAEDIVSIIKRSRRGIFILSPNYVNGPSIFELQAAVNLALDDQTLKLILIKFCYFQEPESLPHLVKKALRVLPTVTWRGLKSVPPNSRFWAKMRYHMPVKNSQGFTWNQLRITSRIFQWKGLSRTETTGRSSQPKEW


Target: T1, IL-18 receptor (IL-18Rα/IL-18Rβ) …
Assay: cell-based or functional assay

| Binder | HEK-Blue IL-18: Abs 405 [Abs] | HEK-Blue IL-18: Fold over Background [fold] |
| --- | --- | --- |
| DGL305 (bispecific antibody, V domains shown) V domain 1: EVQLVESGGGLVQPGGSLRLSCAASGSIFSINAMGWYRQAPGKQREVVATSTGGGMTNYADSVKGRFTISRDNAKNTVYLQMNSLKPEDTAVYYCNADKDPFFPGDYWGQGTQVTVSS V domain 2: QVQLQESGGGLVQPGGSLGLSCAASGIKISVNSMAWYRQAPGERREMVAVISSGGSAVYADSVKGRFTISRDNAKNMVYLQMNSLKPEDTAVYYCHPGSAAYRDYWGQGTQVTVSS | 0.25 | 1.1 |
| DGL298 (bispecific antibody, V domains shown) V domain 1: QVQLVESGGGLVQAGGSLRLSCAASGRTFSSYDMGWFRQAPGKEREFVAALRWSGGSTSYADSVKGRFTISRDNAKNTVYLHMNSLKPEDTAVYYCAATLETDSGTYWADYWGQGTQVTVSS V domain 2: QVQLVESGGGLVLPGESLRLSCVVSGTIDNINSMGWYRQAPGKQRELVAYITKLGSANYADSVEGRFTISRDNAKKTVHLQMNSLKPEDTAVYYCHANERGRITWAQGTQVTVSS | 0.97 | 4.2 |
| DGL304 (bispecific antibody, V domains shown) V domain 1: QVQLVESGGGLVQAGGSLRLSCAASGRTFSSYDMGWFRQAPGKEREFVAALRWSGGSTSYADSVKGRFTISRDNAKNTVYLHMNSLKPEDTAVYYCAATLETDSGTYWADYWGQGTQVTVSS V domain 2: QVQLQESGGGLVQPGGSLGLSCAASGIKISVNSMAWYRQAPGERREMVAVISSGGSAVYADSVKGRFTISRDNAKNMVYLQMNSLKPEDTAVYYCHPGSAAYRDYWGQGTQVTVSS | 1.32 | 5.7 |
| DGL300 (bispecific antibody, V domains shown) V domain 1: QVQLQESGGGLVQPGGSLRLSCAASGSIFSTKGLGWYRQAPGEQRELVAGISSAGWIFYTQSVKGRFTMSRDNAKNTVYLQMNSLKPEDTAVYYCNSAQSGVPLRSWGQGTQVTVAS V domain 2: QVQLVESGGGLVLPGESLRLSCVVSGTIDNINSMGWYRQAPGKQRELVAYITKLGSANYADSVEGRFTISRDNAKKTVHLQMNSLKPEDTAVYYCHANERGRITWAQGTQVTVSS | 1.07 | 4.7 |
| DGL302 (bispecific antibody, V domains shown) V domain 1: QVQLVESGGGLVQAGGSLRLSCAASGRTFSKHAMGWFRQAPGKEREFVAAIDWSGGSTYYADSVKGRFTISRDNAKNTVYLQMDSLKPEDTAVYYCAADSYTDYAQLWLPELESEYDYWGQGTQVTVSS V domain 2: QVQLVESGGGLVLPGESLRLSCVVSGTIDNINSMGWYRQAPGKQRELVAYITKLGSANYADSVEGRFTISRDNAKKTVHLQMNSLKPEDTAVYYCHANERGRITWAQGTQVTVSS | 1.18 | 5.2 |
| DGL299 (bispecific antibody, V domains shown) V domain 1: EVQLVESGGGLVQPGGSLRLSCAASGSIFSINAMGWYRQAPGKQREVVATSTGGGMTNYADSVKGRFTISRDNAKNTVYLQMNSLKPEDTAVYYCNADKDPFFPGDYWGQGTQVTVSS V domain 2: QVQLVESGGGLVLPGESLRLSCVVSGTIDNINSMGWYRQAPGKQRELVAYITKLGSANYADSVEGRFTISRDNAKKTVHLQMNSLKPEDTAVYYCHANERGRITWAQGTQVTVSS | 0.91 | 4 |
| DGL303 (bispecific antibody, V domains shown) V domain 1: QVQLQESGGGLVQPGGSLRLSCAASGFIFSNWYMRWVRQAPGEGLEWVSSINSGGDDTDYADSVKGRFTISRDNAKGTLYLQMHSLKPEDTALYYCERGADRVRGQGTQVTVSS V domain 2: QVQLVESGGGLVLPGESLRLSCVVSGTIDNINSMGWYRQAPGKQRELVAYITKLGSANYADSVEGRFTISRDNAKKTVHLQMNSLKPEDTAVYYCHANERGRITWAQGTQVTVSS | 1.02 | 4.4 |
| DGL301 (bispecific antibody, V domains shown) V domain 1: QVQLQESGGGLVQPGGSARLSCVASGIIFNDYHMGWYRQAPGKQRDLVAGITAGGSTTYADSVKGRFTISRDNAKHTVYLQMNNLSPEDTAVYYCNTFYNAILDWGKGTLVTVSS V domain 2: QVQLVESGGGLVLPGESLRLSCVVSGTIDNINSMGWYRQAPGKQRELVAYITKLGSANYADSVEGRFTISRDNAKKTVHLQMNSLKPEDTAVYYCHANERGRITWAQGTQVTVSS | 0.66 | 2.9 |

Results, then the binder that gave them:

| HEK-Blue IL-18: Abs 405 [Abs] | HEK-Blue IL-18: Fold over Background [fold] | Binder |
| --- | --- | --- |
| 0.23 | 1 | DGL309 (bispecific antibody, V domains shown) V domain 1: QVQLQESGGGLVQPGGSARLSCVASGIIFNDYHMGWYRQAPGKQRDLVAGITAGGSTTYADSVKGRFTISRDNAKHTVYLQMNNLSPEDTAVYYCNTFYNAILDWGKGTLVTVSS V domain 2: EVQLVESGGGVAQAGGSLRLSCAASITSFSLNTMGYYRQLPGKQRELVAVESSSGITNYADSVKGRFTISRDGAKNTVFLQMNSLTPEDTAVYYCGGKLFGRDFWGQGTQVTVSS |
| 2.7 | 11.8 | DGL310 (bispecific antibody, V domains shown) V domain 1: QVQLVESGGGLVQAGGSLRLSCAASGRTFSKHAMGWFRQAPGKEREFVAAIDWSGGSTYYADSVKGRFTISRDNAKNTVYLQMDSLKPEDTAVYYCAADSYTDYAQLWLPELESEYDYWGQGTQVTVSS V domain 2: EVQLVESGGGVAQAGGSLRLSCAASITSFSLNTMGYYRQLPGKQRELVAVESSSGITNYADSVKGRFTISRDGAKNTVFLQMNSLTPEDTAVYYCGGKLFGRDFWGQGTQVTVSS |
| 0.79 | 3.4 | DGL311 (bispecific antibody, V domains shown) V domain 1: QVQLVESGGGLVQAGGSLRLSCAASGRTFSSYTMGWFRQAPGKEREFVAAISWSAGRTYYADSVKGRFTISRDNAKNTVYLQMNSLKPEDTAVYFCAAEEAPDWAPIDCSGYGCLSLYDYWGQGTQVTVSS V domain 2: EVQLVESGGGVAQAGGSLRLSCAASITSFSLNTMGYYRQLPGKQRELVAVESSSGITNYADSVKGRFTISRDGAKNTVFLQMNSLTPEDTAVYYCGGKLFGRDFWGQGTQVTVSS |
| 0.62 | 2.7 | DGL313 (bispecific antibody, V domains shown) V domain 1: EVQLVESGGGLVQPGGSLRLSCAASGSIFSINAMGWYRQAPGKQREVVATSTGGGMTNYADSVKGRFTISRDNAKNTVYLQMNSLKPEDTAVYYCNADKDPFFPGDYWGQGTQVTVSS V domain 2: QVQLVESGGGLVQAGGSLRLSCAASGMFFSIGEMGWYRQAPGKQREMVARITRDGRINYADSVEGRFTASRNVAKTTLFLQMNSLKPEDTANYQCTVRRWDEEYWGKGTLVTVSD |
| 0.35 | 1.5 | DGL307 (bispecific antibody, V domains shown) V domain 1: QVQLVESGGGLVQAGGSLRLSCAASGRTFSSYTMGWFRQAPGKEREFVAAISWSAGRTYYADSVKGRFTISRDNAKNTVYLQMNSLKPEDTAVYFCAAEEAPDWAPIDCSGYGCLSLYDYWGQGTQVTVSS V domain 2: QVQLQESGGGLVQPGGSLGLSCAASGIKISVNSMAWYRQAPGERREMVAVISSGGSAVYADSVKGRFTISRDNAKNMVYLQMNSLKPEDTAVYYCHPGSAAYRDYWGQGTQVTVSS |
| 1.41 | 6.2 | DGL306 (bispecific antibody, V domains shown) V domain 1: QVQLVESGGGLVQAGGSLRLSCAASGRTFSKHAMGWFRQAPGKEREFVAAIDWSGGSTYYADSVKGRFTISRDNAKNTVYLQMDSLKPEDTAVYYCAADSYTDYAQLWLPELESEYDYWGQGTQVTVSS V domain 2: QVQLQESGGGLVQPGGSLGLSCAASGIKISVNSMAWYRQAPGERREMVAVISSGGSAVYADSVKGRFTISRDNAKNMVYLQMNSLKPEDTAVYYCHPGSAAYRDYWGQGTQVTVSS |
| 1.48 | 6.4 | DGL308 (bispecific antibody, V domains shown) V domain 1: QVQLVESGGGLVQAGGSLRLSCAASGRTFSSYDMGWFRQAPGKEREFVAALRWSGGSTSYADSVKGRFTISRDNAKNTVYLHMNSLKPEDTAVYYCAATLETDSGTYWADYWGQGTQVTVSS V domain 2: EVQLVESGGGVAQAGGSLRLSCAASITSFSLNTMGYYRQLPGKQRELVAVESSSGITNYADSVKGRFTISRDGAKNTVFLQMNSLTPEDTAVYYCGGKLFGRDFWGQGTQVTVSS |
| 0.63 | 2.7 | DGL312 (bispecific antibody, V domains shown) V domain 1: QVQLVESGGGLVQAGGSLRLSCAASGRTFSSYDMGWFRQAPGKEREFVAALRWSGGSTSYADSVKGRFTISRDNAKNTVYLHMNSLKPEDTAVYYCAATLETDSGTYWADYWGQGTQVTVSS V domain 2: QVQLVESGGGLVQAGGSLRLSCAASGMFFSIGEMGWYRQAPGKQREMVARITRDGRINYADSVEGRFTASRNVAKTTLFLQMNSLKPEDTANYQCTVRRWDEEYWGKGTLVTVSD |
